# Legend:
# Conditions in all cases: one partner purified
# [1] = molecular target: T1, CD47 naturally expressed on CD47(+) Jurkat T lymphoma cells (human (endogenous in Jurkat), UniProt Q08722 19-323); assay: laser scanning cytometry (LSC) on cells; competition on live CD47(+) Jurkat cells, 384-well, homogeneous: a fixed concentration of SIRPα-biotin (20 nM) co-incubated with a titration of the competitor or inhibitor, neutravidin-Alexa488
# T1 construct: CD47, human, endogenous on the surface of Jurkat T lymphoma cells; also called cell-expressed CD47; native, cell surface expressed CD47; source: endogenous, on Jurkat cells (live or fixed in 4% paraformaldehyde)
# T1 sequence (Q08722 19-323): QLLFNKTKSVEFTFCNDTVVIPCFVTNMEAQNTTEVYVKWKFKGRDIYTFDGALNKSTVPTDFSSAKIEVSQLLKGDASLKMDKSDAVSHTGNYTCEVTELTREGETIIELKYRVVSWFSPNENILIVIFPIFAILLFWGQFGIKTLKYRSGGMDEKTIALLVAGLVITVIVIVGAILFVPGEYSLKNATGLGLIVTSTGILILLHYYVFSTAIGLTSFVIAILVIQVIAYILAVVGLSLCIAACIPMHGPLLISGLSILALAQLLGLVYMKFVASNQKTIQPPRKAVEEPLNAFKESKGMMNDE
# [2] = molecular target: T1, CD47 naturally expressed on CD47(+) …; assay: laser scanning cytometry (LSC) on cells; titration of SIRPα-biotin on Jurkat cells fixed in 4% paraformaldehyde (30 min on ice), homogeneous, neutravidin-Alexa488; with or without 1% DMSO
# [3] = molecular target: T1, CD47 naturally expressed on CD47(+) …; assay: laser scanning cytometry (LSC) on cells; titration of SIRPα-biotin on live DRAQ5-labelled Jurkat cells, 384-well, homogeneous (no wash), HEPES buffer (10 mM HEPES pH 7.5, 0.15 M NaCl), room temperature, neutravidin-Alexa488 0.5 μg/mL; SIRPα presented as a multimer on tetrameric neutravidin (avidity)
binder,measurement,setting,value
"SIRPα variant 1, non-biotin conjugated (cold) (domain or fragment, human, UniProt P78324 31-148, looked up, SIRPα allelic variant 1, human; non-biotin conjugated analog of the biotin-conjugated d1 construct; also called cold SIRPαV1; non-biotin conjugated SIRPαV1; source: produced as described in [33]) EEELQVIQPDKSVLVAAGETATLRCTATSLIPVGPIQWFRGAGPGRELIYNQKEGHFPRVTTVSDLTKRNNMDFSIRIGNITPADAGTYYCVKFRKGSPDDVEFKSGAGTELSVRAKP",IC50,[1],7500 nM
"SIRPα-Avi-biotin (soluble, biotin-conjugated SIRPα d1 construct; allelic variant not stated for the experiment) (domain or fragment, biotin (biotin-conjugated, SIRPα-Avi-biotin)) EELQVIQPDKSVLVAAGETATLRCTATSLIPVGPIQWFRGAGPGRELIYNQKEGHFPRVTTVSDLTKRNNMDFSIRIGNITPADAGTYYCVKFRKGSPDDVEFKSG",EC50,[2],1.3 nM
same,EC50,[3],4.6 nM

# Source: PMC7117682, “A homogeneous SIRPα-CD47 cell-based, ligand-binding assay: Utility for small molecule drug development in immuno-oncology” (PLoS ONE, 2020)
